US6525022B1, “Receptor specific atrial natriuretic peptides” (Genentech, Inc., priority 1993, dated 2003)
Values belong to the molecule of their own block, whether it stands above or below them. Where a SMILES comes first, the peptide text is derived from it. Bridges are numbered along the chain shown (N, C = ends).

Experiments:
[1] = target: T1, hNPR-C (Homo sapiens, UniProt P17342); assay: Competition binding to hNPR-C (Table I, FIG. 5)
T1 sequence (P17342 27-541): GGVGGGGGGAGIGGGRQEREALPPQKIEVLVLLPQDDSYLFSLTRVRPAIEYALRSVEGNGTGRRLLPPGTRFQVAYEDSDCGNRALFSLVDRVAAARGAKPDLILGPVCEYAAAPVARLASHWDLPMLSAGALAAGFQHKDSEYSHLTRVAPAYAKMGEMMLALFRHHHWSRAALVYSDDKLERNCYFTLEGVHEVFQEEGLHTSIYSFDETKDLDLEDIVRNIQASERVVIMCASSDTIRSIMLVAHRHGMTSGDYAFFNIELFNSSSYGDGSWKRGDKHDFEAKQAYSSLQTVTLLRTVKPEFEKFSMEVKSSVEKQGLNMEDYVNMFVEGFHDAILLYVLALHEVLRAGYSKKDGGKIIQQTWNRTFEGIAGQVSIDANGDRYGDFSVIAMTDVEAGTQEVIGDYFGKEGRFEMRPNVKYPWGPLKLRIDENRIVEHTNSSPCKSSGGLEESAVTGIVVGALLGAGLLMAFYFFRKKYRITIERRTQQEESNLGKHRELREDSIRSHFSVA

[2] = target: T2, hNPR-A (Homo sapiens, UniProt P16066); assay: Competition binding to hNPR-A (Table I, FIG. 5)
T2 sequence (P16066 33-1061): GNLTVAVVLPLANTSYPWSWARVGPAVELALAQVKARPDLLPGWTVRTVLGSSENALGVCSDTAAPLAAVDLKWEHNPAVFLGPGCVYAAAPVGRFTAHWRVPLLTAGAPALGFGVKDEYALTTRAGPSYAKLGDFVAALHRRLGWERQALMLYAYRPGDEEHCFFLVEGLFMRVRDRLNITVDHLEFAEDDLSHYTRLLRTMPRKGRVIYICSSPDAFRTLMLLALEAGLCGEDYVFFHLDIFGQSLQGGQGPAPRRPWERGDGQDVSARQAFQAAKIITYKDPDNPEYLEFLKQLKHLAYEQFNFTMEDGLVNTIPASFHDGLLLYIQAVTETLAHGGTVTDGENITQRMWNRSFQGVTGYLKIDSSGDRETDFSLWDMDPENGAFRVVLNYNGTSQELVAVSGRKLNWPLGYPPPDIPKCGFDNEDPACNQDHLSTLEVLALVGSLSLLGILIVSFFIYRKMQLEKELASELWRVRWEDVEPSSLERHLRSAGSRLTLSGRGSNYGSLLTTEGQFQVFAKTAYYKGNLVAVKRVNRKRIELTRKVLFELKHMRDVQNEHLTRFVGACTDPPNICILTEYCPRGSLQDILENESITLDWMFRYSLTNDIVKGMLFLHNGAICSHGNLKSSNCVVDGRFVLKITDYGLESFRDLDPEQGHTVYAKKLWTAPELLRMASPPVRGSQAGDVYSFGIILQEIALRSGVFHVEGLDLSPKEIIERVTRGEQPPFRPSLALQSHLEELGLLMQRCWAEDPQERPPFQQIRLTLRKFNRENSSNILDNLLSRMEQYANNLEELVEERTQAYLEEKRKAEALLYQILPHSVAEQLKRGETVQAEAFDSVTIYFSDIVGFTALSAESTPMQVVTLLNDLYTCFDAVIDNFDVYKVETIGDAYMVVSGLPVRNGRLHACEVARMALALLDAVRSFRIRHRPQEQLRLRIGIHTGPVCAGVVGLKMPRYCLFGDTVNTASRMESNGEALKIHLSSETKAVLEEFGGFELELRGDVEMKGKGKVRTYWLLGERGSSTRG

[3] = target: human NEP (hNEP), endopeptidase 24.11 (Homo sapiens, UniProt P08473); assay: Degradation of ANF variants by human NEP, half-life by HPLC; details: isolated human NEP (endopeptidase 24.11) in HEPES buffer, Half-Life (min.), FIG. 7: ANF variants 32 nM/ml, NEP 0.45 μg/ml
[4] = target: human neutral endopeptidase 24.11 (human) (UniProt P08473); assay: cell-based or functional assay
[5] = target: T3, human natriuretic peptide receptor-A (human), P16066; assay: competition binding vs 125I-rat ANP, membranes; details: chains peptide; modification not given
T3 chain: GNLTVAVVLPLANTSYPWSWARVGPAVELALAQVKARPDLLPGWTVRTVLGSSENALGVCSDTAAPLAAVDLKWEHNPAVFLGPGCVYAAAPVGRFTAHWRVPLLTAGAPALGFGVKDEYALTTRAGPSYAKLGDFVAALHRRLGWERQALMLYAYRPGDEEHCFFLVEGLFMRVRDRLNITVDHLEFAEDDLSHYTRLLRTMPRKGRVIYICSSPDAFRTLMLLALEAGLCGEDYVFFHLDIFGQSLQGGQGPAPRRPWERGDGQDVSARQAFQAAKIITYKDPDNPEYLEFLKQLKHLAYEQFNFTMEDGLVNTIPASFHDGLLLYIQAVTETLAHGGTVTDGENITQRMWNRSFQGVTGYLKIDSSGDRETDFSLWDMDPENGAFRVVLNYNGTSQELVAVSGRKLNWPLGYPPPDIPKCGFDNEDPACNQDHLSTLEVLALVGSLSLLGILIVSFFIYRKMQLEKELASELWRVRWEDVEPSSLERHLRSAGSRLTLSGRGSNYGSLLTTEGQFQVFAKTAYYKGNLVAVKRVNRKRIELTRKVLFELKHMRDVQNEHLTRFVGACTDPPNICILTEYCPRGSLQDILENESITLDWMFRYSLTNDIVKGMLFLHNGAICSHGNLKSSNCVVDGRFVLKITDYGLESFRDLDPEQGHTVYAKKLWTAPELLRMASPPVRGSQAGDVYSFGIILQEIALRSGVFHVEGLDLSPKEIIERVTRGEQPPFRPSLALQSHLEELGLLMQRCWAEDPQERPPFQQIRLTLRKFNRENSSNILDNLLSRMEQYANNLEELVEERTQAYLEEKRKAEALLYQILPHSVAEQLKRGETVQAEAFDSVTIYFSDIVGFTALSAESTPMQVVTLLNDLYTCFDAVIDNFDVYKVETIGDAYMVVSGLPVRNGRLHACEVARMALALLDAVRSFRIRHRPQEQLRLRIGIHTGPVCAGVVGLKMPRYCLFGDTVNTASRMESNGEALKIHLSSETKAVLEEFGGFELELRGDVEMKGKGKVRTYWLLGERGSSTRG

[6] = target: T4, human natriuretic peptide clearance receptor-C (human), P17342; assay: competition binding, membranes; details: chains peptide; modification not given
T4 chain: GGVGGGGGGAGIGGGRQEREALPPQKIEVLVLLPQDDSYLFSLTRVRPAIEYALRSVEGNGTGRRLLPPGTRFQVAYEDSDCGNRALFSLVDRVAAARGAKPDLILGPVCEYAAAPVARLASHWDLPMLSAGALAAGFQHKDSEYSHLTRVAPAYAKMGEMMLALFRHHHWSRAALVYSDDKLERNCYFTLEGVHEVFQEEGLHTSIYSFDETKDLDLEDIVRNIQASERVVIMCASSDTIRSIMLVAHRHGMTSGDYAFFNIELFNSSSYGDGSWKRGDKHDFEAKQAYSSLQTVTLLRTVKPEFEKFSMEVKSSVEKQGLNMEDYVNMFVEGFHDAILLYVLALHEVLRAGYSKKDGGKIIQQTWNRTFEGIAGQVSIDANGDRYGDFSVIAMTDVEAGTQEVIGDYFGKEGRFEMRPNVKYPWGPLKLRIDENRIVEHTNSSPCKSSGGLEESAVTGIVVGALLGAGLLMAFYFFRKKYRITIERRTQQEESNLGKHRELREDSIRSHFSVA

[7] = target: T5, human neutral endopeptidase 24.11 (human), P08473; assay: cell-based or functional assay
T5 chain: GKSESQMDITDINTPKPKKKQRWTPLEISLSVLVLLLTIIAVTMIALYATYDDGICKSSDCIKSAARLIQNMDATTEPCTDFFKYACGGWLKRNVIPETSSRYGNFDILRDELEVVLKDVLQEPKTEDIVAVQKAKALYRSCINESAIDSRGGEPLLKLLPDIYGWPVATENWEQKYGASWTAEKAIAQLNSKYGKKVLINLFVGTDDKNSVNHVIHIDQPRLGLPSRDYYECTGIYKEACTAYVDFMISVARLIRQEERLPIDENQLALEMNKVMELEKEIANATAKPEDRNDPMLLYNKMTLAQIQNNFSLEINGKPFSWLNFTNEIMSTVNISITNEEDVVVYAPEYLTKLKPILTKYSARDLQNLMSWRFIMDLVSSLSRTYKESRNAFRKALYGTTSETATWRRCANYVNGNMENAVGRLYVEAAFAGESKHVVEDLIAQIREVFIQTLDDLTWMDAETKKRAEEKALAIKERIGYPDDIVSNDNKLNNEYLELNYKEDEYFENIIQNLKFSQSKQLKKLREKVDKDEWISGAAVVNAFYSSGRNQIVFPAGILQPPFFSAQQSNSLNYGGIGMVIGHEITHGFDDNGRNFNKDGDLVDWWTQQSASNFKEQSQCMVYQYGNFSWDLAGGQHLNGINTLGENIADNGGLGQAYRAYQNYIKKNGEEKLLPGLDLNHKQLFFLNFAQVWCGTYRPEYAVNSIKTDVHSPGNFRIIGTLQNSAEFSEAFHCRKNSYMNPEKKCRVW

Sequence of human NEP (hNEP), endopeptidase 24.11 (P08473 whole entry): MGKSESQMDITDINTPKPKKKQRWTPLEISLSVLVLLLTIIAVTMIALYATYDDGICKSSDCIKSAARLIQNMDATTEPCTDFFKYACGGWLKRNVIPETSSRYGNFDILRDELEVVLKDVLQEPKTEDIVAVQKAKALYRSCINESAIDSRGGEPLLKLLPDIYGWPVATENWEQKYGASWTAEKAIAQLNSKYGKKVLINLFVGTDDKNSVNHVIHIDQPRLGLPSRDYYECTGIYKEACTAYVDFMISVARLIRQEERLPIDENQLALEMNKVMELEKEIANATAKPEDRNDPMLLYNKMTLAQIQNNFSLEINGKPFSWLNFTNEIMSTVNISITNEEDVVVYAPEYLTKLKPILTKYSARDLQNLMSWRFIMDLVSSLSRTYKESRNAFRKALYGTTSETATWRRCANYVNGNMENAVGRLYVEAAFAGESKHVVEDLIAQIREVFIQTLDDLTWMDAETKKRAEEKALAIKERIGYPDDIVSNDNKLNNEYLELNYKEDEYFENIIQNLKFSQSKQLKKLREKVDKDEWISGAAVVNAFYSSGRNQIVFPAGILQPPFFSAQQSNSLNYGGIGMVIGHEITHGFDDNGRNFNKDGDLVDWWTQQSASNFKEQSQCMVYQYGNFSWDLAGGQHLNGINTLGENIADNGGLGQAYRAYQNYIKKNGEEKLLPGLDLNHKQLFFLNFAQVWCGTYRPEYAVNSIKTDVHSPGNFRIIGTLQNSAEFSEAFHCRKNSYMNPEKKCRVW

Molecule: CC[C@H](C)[C@@H]1NC(=O)[C@H](CCCNC(=N)N)NC(=O)[C@H](CC(=O)O)NC(=O)[C@H](CCSC)NC(=O)[C@H](CO)NC(=O)[C@H](CCCCN)NC(=O)CNC(=O)[C@H](Cc2ccccc2)NC(=O)[C@@H](NC(=O)[C@H](CO)NC(=O)[C@H](CO)NC(=O)[C@H](CCCNC(=N)N)NC(=O)[C@H](CCCNC(=N)N)NC(=O)[C@H](CC(C)C)NC(=O)[C@@H](N)CO)CSSC[C@@H](C(=O)N[C@@H](CC(N)=O)C(=O)N[C@@H](CO)C(=O)N[C@@H](Cc2ccccc2)C(=O)N[C@@H](CCCNC(=N)N)C(=O)N[C@@H](Cc2ccc(O)cc2)C(=O)O)NC(=O)CNC(=O)[C@H](CC(C)C)NC(=O)CNC(=O)[C@H](CO)NC(=O)[C@H](CCC(N)=O)NC(=O)[C@H](C)NC(=O)CNC1=O [ANF 60] (H-SLRRSSCFGKSMDRIGAQSGLGCNSFRY-OH; disulfide 7-23; C-terminus assumed)
IC50 ([1]; read-out: Binding Affinity IC50(pM) hNPR-C): 5980 pM
IC50 ([2]; read-out: Binding Affinity IC50(pM) hNPR-A): 112 pM
half-life at 32 nM/ml [3]: 5.07 h

Molecule: ANF 28 (peptide)
Half-Life [4]: 9.52 h

Molecule: ANF 40 (peptide)
Half-Life [4]: 9.95 h

The remaining lines, values ahead:

Reduction of NPR-C affinity ([1]; relative to wild type): about 150 fold
Effect of substitution on NPR-A binding ([2]; relative to wild type): negligible effect
Molecule: hANF(1-28) G16R (SLRRSSCFGGRMDRIRAQSGLGCNSFRY) [hANF with the single substitution of arginine for glycine at position 16]

IC50 [5]: 0.181 nM
IC50 [6]: 0.145 nM
Half-Life [7]: 2.75 h
Molecule: SLRRSSCFGGRIDRIGAQSGLGCNSFRY (modifications not checked) [rat ANP]
